Test results published in PMC9482650, “Quantitative fragmentomics allow affinity mapping of interactomes” (Nature Communications, 2022).

T1: APBA2_1, Q99767
T1 sequence (Q99767 563-664, limits assumed, looked up): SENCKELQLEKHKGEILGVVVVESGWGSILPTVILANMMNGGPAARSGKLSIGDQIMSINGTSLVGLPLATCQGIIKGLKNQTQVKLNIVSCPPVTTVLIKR

T2: APBA2_2, Q99767
T2 sequence (Q99767 654-744, limits assumed, looked up): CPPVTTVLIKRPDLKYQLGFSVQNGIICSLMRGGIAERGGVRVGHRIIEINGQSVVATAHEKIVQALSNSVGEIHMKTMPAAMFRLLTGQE

T3: DVL3, Q92997
T3 sequence (Q92997 244-331, limits assumed, looked up): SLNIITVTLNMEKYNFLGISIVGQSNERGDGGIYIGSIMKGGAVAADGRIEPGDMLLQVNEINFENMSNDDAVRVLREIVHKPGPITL

T4: PDZD7_3, Q9H5P4
T4 sequence (Q9H5P4 857-944, limits assumed, looked up): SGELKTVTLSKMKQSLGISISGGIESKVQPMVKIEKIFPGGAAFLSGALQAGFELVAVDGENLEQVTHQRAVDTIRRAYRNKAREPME

T5: HTRA4, P83105
T5 sequence (P83105 378-476, limits assumed, looked up): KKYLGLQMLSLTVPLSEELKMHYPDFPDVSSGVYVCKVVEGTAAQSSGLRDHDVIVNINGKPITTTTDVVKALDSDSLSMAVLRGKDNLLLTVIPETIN

T6: LIN7B, Q9HAP6
T6 sequence (Q9HAP6 88-185, limits assumed, looked up): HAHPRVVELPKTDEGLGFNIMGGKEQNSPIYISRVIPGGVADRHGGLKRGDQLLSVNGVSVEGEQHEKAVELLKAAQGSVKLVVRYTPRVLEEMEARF

T7: APBA3_1, O96018
T7 sequence (O96018 389-490, limits assumed, looked up): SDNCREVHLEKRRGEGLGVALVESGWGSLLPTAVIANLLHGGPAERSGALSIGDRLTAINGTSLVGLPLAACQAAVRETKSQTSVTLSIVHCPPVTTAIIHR

T8: SIPA1L2, Q9P2F8
T8 sequence (Q9P2F8 945-1036, limits assumed, looked up): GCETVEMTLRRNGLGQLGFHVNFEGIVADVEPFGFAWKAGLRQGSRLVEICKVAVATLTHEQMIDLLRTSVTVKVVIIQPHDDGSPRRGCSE

T9: NHERF3_4, Q5T2W1
T9 sequence (Q5T2W1 373-468, limits assumed, looked up): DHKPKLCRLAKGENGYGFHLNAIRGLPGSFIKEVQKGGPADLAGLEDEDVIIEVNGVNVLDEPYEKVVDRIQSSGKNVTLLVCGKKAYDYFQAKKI

T10: SYNJ2BP, P57105
T10 sequence (P57105 8-110, limits assumed, looked up): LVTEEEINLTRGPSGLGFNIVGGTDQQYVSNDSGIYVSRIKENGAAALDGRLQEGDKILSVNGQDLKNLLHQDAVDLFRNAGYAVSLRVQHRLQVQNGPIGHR

T11: MPDZ_10, O75970
T11 sequence (O75970 1624-1722, limits assumed, looked up): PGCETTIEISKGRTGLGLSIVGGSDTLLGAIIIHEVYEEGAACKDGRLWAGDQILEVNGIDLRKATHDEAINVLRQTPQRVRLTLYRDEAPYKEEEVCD

T12: DFNB31_3, Q9P202
T12 sequence (Q9P202 811-907, limits assumed, looked up): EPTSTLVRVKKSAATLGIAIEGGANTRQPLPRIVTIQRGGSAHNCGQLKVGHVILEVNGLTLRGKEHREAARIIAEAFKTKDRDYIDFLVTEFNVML

T13: APBA1_1, Q02410
T13 sequence (Q02410 651-752, limits assumed, looked up): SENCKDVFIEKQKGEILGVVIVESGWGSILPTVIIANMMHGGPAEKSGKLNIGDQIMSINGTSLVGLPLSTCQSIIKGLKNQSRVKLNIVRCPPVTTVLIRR


How the values were obtained:
Assay in all cases: holdup assay
Design in all cases: key: below the threshold = too weak to quantify, mostly under pKd 3.1 to 4
Conditions in all cases: plain residues with an end cap or a label only (N-terminal biotin on a linker: ado-ado)
APBA2_1, Q99767 = biological target: T1, APBA2_1, Q99767
GRIP2_3, Q9C0E4 = biological target: GRIP2_3, Q9C0E4
Sequence of GRIP2_3, Q9C0E4 (Q9C0E4 238-339): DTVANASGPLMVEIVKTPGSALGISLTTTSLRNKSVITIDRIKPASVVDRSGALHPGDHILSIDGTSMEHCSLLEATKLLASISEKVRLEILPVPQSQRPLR

APBA2_2, Q99767 = biological target: T2, APBA2_2, Q99767
DVL3, Q92997 = biological target: T3, DVL3, Q92997
TJP2_1, Q9UDY2 = biological target: TJP2_1, Q9UDY2
Sequence of TJP2_1, Q9UDY2 (Q9UDY2 24-128): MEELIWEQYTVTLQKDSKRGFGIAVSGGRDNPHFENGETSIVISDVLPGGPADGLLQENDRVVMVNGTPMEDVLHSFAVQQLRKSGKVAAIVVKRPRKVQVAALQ

FRMPD4, Q14CM0 = biological target: FRMPD4, Q14CM0
Sequence of FRMPD4, Q14CM0 (Q14CM0 67-160): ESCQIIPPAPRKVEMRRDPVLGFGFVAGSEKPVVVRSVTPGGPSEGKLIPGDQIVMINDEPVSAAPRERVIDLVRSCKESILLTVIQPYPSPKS

MAGI3_2, Q5TCQ9 = biological target: MAGI3_2, Q5TCQ9
Sequence of MAGI3_2, Q5TCQ9 (Q5TCQ9 398-503): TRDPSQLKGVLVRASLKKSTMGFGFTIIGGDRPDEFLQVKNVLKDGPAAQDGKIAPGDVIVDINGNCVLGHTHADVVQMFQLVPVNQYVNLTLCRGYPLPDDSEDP

SNX27, Q96L92 = biological target: SNX27, Q96L92
PDZD7_3, Q9H5P4 = biological target: T4, PDZD7_3, Q9H5P4
HTRA4, P83105 = biological target: T5, HTRA4, P83105
LIN7B, Q9HAP6 = biological target: T6, LIN7B, Q9HAP6
APBA3_1, O96018 = biological target: T7, APBA3_1, O96018
SIPA1L2, Q9P2F8 = biological target: T8, SIPA1L2, Q9P2F8
NHERF3_4, Q5T2W1 = biological target: T9, NHERF3_4, Q5T2W1
SYNJ2BP, P57105 = biological target: T10, SYNJ2BP, P57105
MPDZ_10, O75970 = biological target: T11, MPDZ_10, O75970
DFNB31_3, Q9P202 = biological target: T12, DFNB31_3, Q9P202
MAST2, Q6P0Q8 = biological target: MAST2, Q6P0Q8
Sequence of MAST2, Q6P0Q8 (Q6P0Q8 1099-1202): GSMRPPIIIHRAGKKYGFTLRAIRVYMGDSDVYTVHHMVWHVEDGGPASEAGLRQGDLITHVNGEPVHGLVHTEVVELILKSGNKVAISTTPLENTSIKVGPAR

APBA1_1, Q02410 = biological target: T13, APBA1_1, Q02410
Inadl_2, Q8NI35 = biological target: Inadl_2, Q8NI35
Sequence of Inadl_2, Q8NI35 (Q8NI35 238-335): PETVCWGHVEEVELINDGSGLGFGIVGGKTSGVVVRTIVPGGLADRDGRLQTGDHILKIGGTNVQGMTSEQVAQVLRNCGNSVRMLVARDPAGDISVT

PDLIM1, O00151 = biological target: PDLIM1, O00151
Sequence of PDLIM1, O00151 (O00151 1-87): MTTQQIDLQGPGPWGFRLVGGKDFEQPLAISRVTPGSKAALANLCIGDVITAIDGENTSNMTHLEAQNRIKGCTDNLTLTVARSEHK

MAGI2_4, Q86UL8 = biological target: MAGI2_4, Q86UL8
Sequence of MAGI2_4, Q86UL8 (Q86UL8 772-865): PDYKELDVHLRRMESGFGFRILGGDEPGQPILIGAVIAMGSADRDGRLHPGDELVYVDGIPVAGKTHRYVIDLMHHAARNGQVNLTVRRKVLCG

GRIP2_7, Q9C0E4 = biological target: GRIP2_7, Q9C0E4
Sequence of GRIP2_7, Q9C0E4 (Q9C0E4 934-1023): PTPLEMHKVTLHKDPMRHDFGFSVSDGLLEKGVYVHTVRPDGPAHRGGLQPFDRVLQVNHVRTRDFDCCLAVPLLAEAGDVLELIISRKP

GRASP, Q7Z6J2 = biological target: GRASP, Q7Z6J2
Sequence of GRASP, Q7Z6J2 (Q7Z6J2 96-193): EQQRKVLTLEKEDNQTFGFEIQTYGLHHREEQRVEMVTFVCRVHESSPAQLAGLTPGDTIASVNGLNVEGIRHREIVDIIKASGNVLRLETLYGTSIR

pKd (APBA2_1, Q99767)	pKd (GRIP2_3, Q9C0E4)	pKd (APBA2_2, Q99767)	pKd (DVL3, Q92997)	pKd (TJP2_1, Q9UDY2)	pKd (FRMPD4, Q14CM0)	pKd (MAGI3_2, Q5TCQ9)	pKd (SNX27, Q96L92)	pKd (PDZD7_3, Q9H5P4)	pKd (HTRA4, P83105)	pKd (LIN7B, Q9HAP6)	pKd (APBA3_1, O96018)	pKd (SIPA1L2, Q9P2F8)	pKd (NHERF3_4, Q5T2W1)	pKd (SYNJ2BP, P57105)	pKd (MPDZ_10, O75970)	pKd (DFNB31_3, Q9P202)	pKd (MAST2, Q6P0Q8)	pKd (APBA1_1, Q02410)	pKd (Inadl_2, Q8NI35)	Binder	other results
below the threshold	below the threshold	below the threshold	below the threshold	below the threshold	below the threshold	4.37	5.55	5.39	below the threshold	4.13	below the threshold	below the threshold	below the threshold	4.6	below the threshold	3.47	5.56	3.48	below the threshold	SKENVQETQI [LRRC4B, Q9NT99]	pKd (PDLIM1, O00151): below the threshold; pKd (MAGI2_4, Q86UL8): below the threshold; pKd (GRIP2_7, Q9C0E4): below the threshold; pKd (GRASP, Q7Z6J2): below the threshold
below the threshold	3.69	below the threshold	below the threshold	below the threshold	3.75	below the threshold	4.6	4.38	4.14	below the threshold	below the threshold	below the threshold	3.48	4.39	below the threshold	below the threshold	4.83	below the threshold	below the threshold	EVNETDDTKM [KCNJ1, P48048]	pKd (PDLIM1, O00151): below the threshold; pKd (MAGI2_4, Q86UL8): 3.63; pKd (GRIP2_7, Q9C0E4): below the threshold; pKd (GRASP, Q7Z6J2): 3.77
below the threshold	below the threshold	below the threshold	below the threshold	below the threshold	4.28	below the threshold	5.65	4.68	below the threshold	4.47	below the threshold	below the threshold	4.13	3.85	below the threshold	3.52	5.62	below the threshold	below the threshold	NLSIEKETKL [ASNSD1, Q9NWL6]	pKd (PDLIM1, O00151): below the threshold; pKd (MAGI2_4, Q86UL8): below the threshold; pKd (GRIP2_7, Q9C0E4): below the threshold; pKd (GRASP, Q7Z6J2): below the threshold
below the threshold	below the threshold	below the threshold	below the threshold	below the threshold	below the threshold	below the threshold	below the threshold	4.52	below the threshold	3.62	below the threshold	below the threshold	below the threshold	below the threshold	3.69	4.08	below the threshold	below the threshold	below the threshold	TPPAAKKSRI [BAZ1A, Q9NRL2]	pKd (PDLIM1, O00151): below the threshold; pKd (MAGI2_4, Q86UL8): 3.71; pKd (GRIP2_7, Q9C0E4): below the threshold; pKd (GRASP, Q7Z6J2): below the threshold
below the threshold	below the threshold	below the threshold	below the threshold	below the threshold	below the threshold	below the threshold	below the threshold	below the threshold	3.85	3.74	below the threshold	below the threshold	below the threshold	below the threshold	below the threshold	below the threshold	below the threshold	below the threshold	below the threshold	LSEFKAMDSI [CTNNA1, P35221]	pKd (PDLIM1, O00151): below the threshold; pKd (MAGI2_4, Q86UL8): below the threshold; pKd (GRIP2_7, Q9C0E4): below the threshold; pKd (GRASP, Q7Z6J2): below the threshold
below the threshold	below the threshold	below the threshold	below the threshold	below the threshold	below the threshold	4.16	below the threshold	4.36	below the threshold	3.78	below the threshold	below the threshold	below the threshold	3.72	below the threshold	3.56	5.07	below the threshold	below the threshold	VNKSKLLTDV [KCNA1, Q09470]	pKd (PDLIM1, O00151): below the threshold; pKd (MAGI2_4, Q86UL8): 3.79; pKd (GRIP2_7, Q9C0E4): below the threshold; pKd (GRASP, Q7Z6J2): below the threshold
